Reference: article PMC12645435, “Improved Nucleoside (2′-Deoxy)Ribosyltransferases Maximize Enzyme Promiscuity while Maintaining Catalytic Efficiency” (ACS Chemical Biology, 2025)
Residue numbers refer to the chain shown, from its start. Names and notes keep the numbering of the source. Values belong to the molecule of their own block, whether it stands above or below them.

Legend:
[1] = biological target: T1, CtNDT (Chroococcidiopsis thermalis, UniProt K9TVX3); assay: steady-state kinetics (details in supplement); format: biochemical; settings: nucleobase acceptor; kcat/KM only said to be similar
T1 construct: gene Chro_1188; homotetramer; residues 111 and 118 of the neighbouring subunit complete the site; expression host and tags only in supplement

[2] = biological target: T2, CtNDT (Chroococcidiopsis thermalis, UniProt K9TVX3, Y7F); assay: X-ray crystal structure; format: binding; settings: active site; ligand placed in 2 of 4 protomers, less defined density
T2 construct: gene Chro_1188; homotetramer; residues 111 and 118 of the neighbouring subunit complete the site; expression host and tags only in supplement

[3] = biological target: T3, CtNDT (Chroococcidiopsis thermalis, UniProt K9TVX3, A9S/Y7F); assay: binding assay (details in supplement)
T3 construct: gene Chro_1188; homotetramer; residues 111 and 118 of the neighbouring subunit complete the site; expression host and tags only in supplement

[4] = biological target: T4, CtNDT (Chroococcidiopsis thermalis, UniProt K9TVX3, Y7F/A9S); assay: X-ray crystal structure; settings: active site, ribosyl-binding pocket
T4 construct: gene Chro_1188; homotetramer; residues 111 and 118 of the neighbouring subunit complete the site; expression host and tags only in supplement

[5] = biological target: T5, CtNDT (Chroococcidiopsis thermalis, UniProt K9TVX3, V85S); assay: HPLC initial rates, Michaelis-Menten; format: biochemical; settings: adenine as nucleobase acceptor
T5 construct: gene Chro_1188; homotetramer; residues 111 and 118 of the neighbouring subunit complete the site; expression host and tags only in supplement

[6] = biological target: T6, CtNDT (Chroococcidiopsis thermalis, UniProt K9TVX3, A9S); assay: HPLC initial rates, Michaelis-Menten; format: biochemical; settings: adenine as nucleobase acceptor
T6 construct: gene Chro_1188; homotetramer; residues 111 and 118 of the neighbouring subunit complete the site; expression host and tags only in supplement

[7] = substrate: OC[C@H]1O[C@@H](n2cnc3c(O)ncnc32)[C@H](O)[C@@H]1O; assay: HPLC initial rates, Michaelis-Menten; format: biochemical, Chroococcidiopsis thermalis; settings: adenine as nucleobase acceptor
[8] = substrate: OC[C@H]1O[C@@H](n2cnc3c(O)ncnc32)[C@H](O)[C@@H]1O; assay: HPLC initial rates, Michaelis-Menten; format: biochemical, Chroococcidiopsis thermalis; settings: adenine as nucleobase acceptor; remark: listed apart in the source
Text: HPLC initial rates, Michaelis-Menten on CtNDT | evaluated with inosine as the sugar donor and adenine as the […]

T1 sequence (K9TVX3 entry or part of it): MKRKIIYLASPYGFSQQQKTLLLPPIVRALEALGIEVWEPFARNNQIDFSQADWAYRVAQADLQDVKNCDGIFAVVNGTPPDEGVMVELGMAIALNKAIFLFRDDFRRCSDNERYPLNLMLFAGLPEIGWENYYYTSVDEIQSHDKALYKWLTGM
T6 sequence (K9TVX3 entry or part of it A9S): as the sequence (K9TVX3 entry or part of it) above, with A9S counted along it
T5 sequence (K9TVX3 entry or part of it V85S): as the sequence (K9TVX3 entry or part of it) above, with V85S counted along it
T2 sequence (K9TVX3 entry or part of it Y7F): as the sequence (K9TVX3 entry or part of it) above, with Y7F counted along it
T3 sequence (K9TVX3 entry or part of it Y7F/A9S): as the sequence (K9TVX3 entry or part of it) above, with Y7F, A9S counted along it
T4 sequence (K9TVX3 entry or part of it Y7F/A9S): as the sequence (K9TVX3 entry or part of it) above, with Y7F, A9S counted along it

Molecule: O=c1[nH]c(=O)c2[nH]cnc2[nH]1 [xanthine]
k cat/K M [1]: uric acid, xanthine, and hypoxanthine, which have similar k cat/K M values

Molecule: O=c1[nH]cnc2c([C@@H]3N[C@H](CO)[C@@H](O)[C@H]3O)c[nH]c12 [Immucillin-H]
X-ray crystal structure [2]: 9EMWCtNDTY7F bound to ImmH
Kd [3]: 590 µM

X-ray crystal structure [4]: 9EMXCtNDTY7F‑A9S bound to Cordycepin
Molecule: Nc1ncnc2c1ncn2[C@@H]1O[C@H](CO)C[C@H]1O [cordycepin]

Molecule: O=c1[nH]cnc2nc[nH]c12 [hypoxanthine]
k cat/K M [1]: uric acid, xanthine, and hypoxanthine, which have similar k cat/K M values

Molecule: O=c1[nH]cnc2c1ncn2[C@@H]1O[C@H](CO)[C@@H](O)[C@H]1O [inosine]
K M-inosine [5]: These mutants had modest changes in K M‑inosine
K M-inosine [6]: These mutants had modest changes in K M‑inosine

B1: CtNDT (Chroococcidiopsis thermalis PCC 7203; Y7A) (protein)
chain: MKRKIIALASPYGFSQQQKTLLLPPIVRALEALGIEVWEPFARNNQIDFSQADWAYRVAQADLQDVKNCDGIFAVVNGTPPDEGVMVELGMAIALNKAIFLFRDDFRRCSDNERYPLNLMLFAGLPEIGWENYYYTSVDEIQSHDKALYKWLTGM
notes: homotetramer; residues 111 and 118 of the neighbouring subunit complete the site; expression host and tags only in supplement
Km [7]: 530 ± 10 µM
kcat [7]: 0.02 ± 0.01 s⁻¹

B2: CtNDT (Chroococcidiopsis thermalis PCC 7203; D62N) (protein)
chain: B1 chain with A7Y, D62N
notes: as for B1
Km [7]: 800 ± 90 µM
kcat [7]: 0.002 ± 0.001 s⁻¹

B3: CtNDT (Chroococcidiopsis thermalis PCC 7203; A9S/Y7F) (protein)
chain: B1 chain with A7F, A9S
notes: as for B1
Km [7]: 620 µM

B4: CtNDT (Chroococcidiopsis thermalis PCC 7203) (protein)
chain: B1 chain with A7Y
notes: as for B1
Km [8]: 920 ± 240 µM
kcat [8]: 0.01 ± 0.01 s⁻¹

B5: CtNDT (Chroococcidiopsis thermalis PCC 7203; Y7F) (protein)
chain: B1 chain with A7F
notes: as for B1
Km [7]: 710 ± 170 µM
kcat [7]: 0.03 ± 0.01 s⁻¹
